# From US20150315289A1 (published 2015)
# Positions of bridges follow the written chain, without caps; N, C: chain ends. No end group written: not given here.
# T1: cyclic phage-display peptide ACPEWWGTTC (disulfide 2-10)
# T1 peptide: ACPEWWGTTC
# T2: linear phage-display peptide WTWNITKAYPLP
# T2 peptide: WTWNITKAYPLP
# T3: linear phage-display peptide WTWNITKEYPQP
# T3 peptide: WTWNITKEYPQP
# Assays:
# [1] = biological target: T1, cyclic phage-display peptide ACPEWWGTTC; assay: phage-displayed peptide immunoreactivity, against the linear peptide
# [2] = biological target: T2, linear phage-display peptide …; assay: phage-displayed peptide screen with hPAM4 and mPAM4
# Text: (§1) The first was a linear peptide library consisting of 12 amino acid sequences and the second was a cyclic peptide consisting of 7 amino acid sequences cyclized by a disulfide bridge.
# [3] = biological target: T3, linear phage-display peptide …; assay: degenerate phage library panned and screened as before (hPAM4 and mPAM4)
# Text: as §1
# MUC17 = MUC17 (UniProt Q685J3 26-4493); assay: immunofluorescence co-localisation on human carcinoma cell lines (data not shown)
immunoreactivity relative to the linear sequence [1],Binder,binding result [2],binding result [3],binding result (MUC17)
~10%,"murine PAM4 (mPAM4) (antibody, V domains shown, also called MAb PAM4; mAb-PAM4) VH: EVQLQESGPELVKPGASVKMSCKASGYTFPSYVLHWVKQKPGQGLEWIGYINPYNDGTQYNEKFKGKATLTSDKSSSTAYMELSRLTSEDSAVYYCARGFGGSYGFAYWGQGTLITVSA VL: DIVMTQSPAIMSASPGEKVTMTCSASSSVSSSYLYWYQQKPGSSPKLWIYSTSNLASGVPARFSGSGSGTSYSLTISSMEAEDAASYFCHQWNRYPYTFGGGTKLEIK",binds,binds,
,"humanized PAM4 (hPAM4) IgG (antibody, V domains shown, humanized IgG1 kappa; used HRP-conjugated in some ELISAs and blots; also called clivatuzumab; HRP-hPAM4) VH: QVQLQQSGAEVKKPGASVKVSCEASGYTFPSYVLHWVKQAPGQGLEWIGYINPYNDGTQYNEKFKGKATLTRDTSINTAYMELSRLRSDDTAVYYCARGFGGSYGFAYWGQGTLVTVSS VL: DIQLTQSPSSLSASVGDRVTMTCSASSSVSSSYLYWYQQKPGKAPKLWIYSTSNLASGVPARFSGSGSGTDFTLTISSLQPEDSASYFCHQWNRYPYTFGGGTRLEIKR",binds,binds,no binding
